Experiments:
[1] = target: IL1RAPL1-ECD-His6, wild type (mouse) (UniProt P59823); assay: crystal structure; sitting drop vapour diffusion at 20 °C; the two proteins mixed at a molar ratio of 1:1 to about 6 g/l before crystallisation
[2] = target: IL1RAPL1-ECD D292A (mouse) (UniProt P59823); assay: SPR; equilibrium; Biacore T200, 25 °C, 10 mM Hepes (pH 7.9), 150 mM NaCl, 0.05% Tween-20; IL1RAPL1-ECD-His6 amine-coupled on a CM5 chip (about 2,000 RU); PTPδ Ig1–Fn1 variants or mutants injected as analytes, 15.6 to 4,000 nM
[3] = target: IL1RAPL1-ECD-His6, wild type (mouse) (UniProt P59823); assay: as above
[4] = target: IL1RAPL1-ECD D37A (mouse) (UniProt P59823); assay: as above
[5] = target: IL1RAPL1-ECD M75A/Y77A/P88A/F91A (mouse) (UniProt P59823); assay: as above
[6] = target: IL-1RAcP-ECD K94A (mouse) (UniProt Q61730); assay: SPR; equilibrium; Biacore T200, 25 °C, 10 mM Hepes (pH 7.9), 150 mM NaCl, 0.05% Tween-20; IL-1RAcP-ECD-Fc captured (about 700 RU) by anti-Fc antibodies immobilised on a CM5 chip; PTPδ Ig1–Fn1 variants or mutants injected as analytes, 15.6 to 4,000 nM
[7] = target: IL-1RAcP-ECD D30A (mouse) (UniProt Q61730); assay: as above
[8] = target: IL-1RAcP-ECD W27A (mouse) (UniProt Q61730); assay: as above
[9] = target: IL-1RAcP-ECD-Fc, wild type (mouse) (UniProt Q61730); assay: as above
[10] = target: IL-1RAcP-ECD (His6-tagged, for crystallography) (mouse) (UniProt Q61730); assay: crystal structure; sitting drop vapour diffusion at 20 °C; the two proteins mixed at a molar ratio of 1:1 to about 6 g/l before crystallisation
Sequence of IL-1RAcP-ECD (His6-tagged, for crystallography) (mouse) (Q61730 21-351): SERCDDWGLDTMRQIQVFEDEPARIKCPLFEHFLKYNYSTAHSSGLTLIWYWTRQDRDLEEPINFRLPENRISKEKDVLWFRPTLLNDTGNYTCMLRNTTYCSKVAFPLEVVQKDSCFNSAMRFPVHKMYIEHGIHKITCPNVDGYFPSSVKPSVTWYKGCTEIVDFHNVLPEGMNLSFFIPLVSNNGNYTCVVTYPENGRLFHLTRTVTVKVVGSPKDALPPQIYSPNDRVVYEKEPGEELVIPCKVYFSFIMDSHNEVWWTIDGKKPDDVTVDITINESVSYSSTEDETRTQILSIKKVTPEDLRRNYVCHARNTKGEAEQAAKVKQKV

Sequence of IL1RAPL1-ECD-His6, wild type (mouse) (P59823 19-352): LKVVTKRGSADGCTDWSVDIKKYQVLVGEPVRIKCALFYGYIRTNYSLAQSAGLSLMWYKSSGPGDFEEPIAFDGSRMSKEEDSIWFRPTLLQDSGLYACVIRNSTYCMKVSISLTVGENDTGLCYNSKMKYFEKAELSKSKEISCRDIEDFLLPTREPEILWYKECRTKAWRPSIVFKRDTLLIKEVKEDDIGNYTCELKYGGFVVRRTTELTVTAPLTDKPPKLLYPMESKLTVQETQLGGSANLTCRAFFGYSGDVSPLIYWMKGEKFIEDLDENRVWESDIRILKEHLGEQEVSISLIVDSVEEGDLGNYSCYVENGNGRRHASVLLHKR
Sequence of IL1RAPL1-ECD M75A/Y77A/P88A/F91A (mouse) (P59823 19-352 M75A/Y77A/P88A/F91A): as the sequence (P59823 19-352) above, with M57A, Y59A, P70A, F73A counted along it
Sequence of IL1RAPL1-ECD D292A (mouse) (P59823 19-352 D292A): as the sequence (P59823 19-352) above, with D274A counted along it
Sequence of IL-1RAcP-ECD K94A (mouse) (Q61730 21-367 K94A): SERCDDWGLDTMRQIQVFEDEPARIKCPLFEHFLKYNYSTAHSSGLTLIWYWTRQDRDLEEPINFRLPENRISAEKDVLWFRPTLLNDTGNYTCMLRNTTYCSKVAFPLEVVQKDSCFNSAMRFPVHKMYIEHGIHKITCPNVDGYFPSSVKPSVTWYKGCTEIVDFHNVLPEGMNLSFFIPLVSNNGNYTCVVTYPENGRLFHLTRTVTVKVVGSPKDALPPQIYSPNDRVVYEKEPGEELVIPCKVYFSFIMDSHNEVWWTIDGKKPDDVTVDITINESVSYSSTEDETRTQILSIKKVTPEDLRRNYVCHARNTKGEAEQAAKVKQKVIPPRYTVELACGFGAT
Sequence of IL-1RAcP-ECD D30A (mouse) (Q61730 21-367 D30A): as the sequence (Q61730 21-367 K94A) above, with D10A, A74K counted along it
Sequence of IL-1RAcP-ECD W27A (mouse) (Q61730 21-367 W27A): as the sequence (Q61730 21-367 K94A) above, with W7A, A74K counted along it
Sequence of IL1RAPL1-ECD D37A (mouse) (P59823 19-352 D37A): as the sequence (P59823 19-352) above, with D19A counted along it
Sequence of IL-1RAcP-ECD-Fc, wild type (mouse) (Q61730 21-367): as the sequence (Q61730 21-367 K94A) above, with A74K counted along it

PTPδ-ECD (full-length extracellular domain) (domain or fragment)
stoichiometry N [1]: 1

PTPδ Ig1–Fn1 (isoform containing meA9 and meB), wild type (domain or fragment)
Kd [2]: 2200 nM | Kd [3]: 150 nM | Kd [4]: 2400 nM | Kd [5]: 2800 nM | Kd [6]: 8200 nM | Kd [7]: 620 nM | Kd [8]: 4600 nM | Kd [9]: 680 nM

PTPδ Ig1–Fn2 (domain or fragment)
stoichiometry N [10]: 1

From article PMC4423211 (2015)
